T1: HIP receptor (EXTL3) (human, UniProt O43909 1-919)
T1 construct: whole, on cells; Endogenous protein of PANC-1 cells, seen by immunostaining and Western blot; also called receptor for Human ProIslet Peptide
T1 sequence (looked up): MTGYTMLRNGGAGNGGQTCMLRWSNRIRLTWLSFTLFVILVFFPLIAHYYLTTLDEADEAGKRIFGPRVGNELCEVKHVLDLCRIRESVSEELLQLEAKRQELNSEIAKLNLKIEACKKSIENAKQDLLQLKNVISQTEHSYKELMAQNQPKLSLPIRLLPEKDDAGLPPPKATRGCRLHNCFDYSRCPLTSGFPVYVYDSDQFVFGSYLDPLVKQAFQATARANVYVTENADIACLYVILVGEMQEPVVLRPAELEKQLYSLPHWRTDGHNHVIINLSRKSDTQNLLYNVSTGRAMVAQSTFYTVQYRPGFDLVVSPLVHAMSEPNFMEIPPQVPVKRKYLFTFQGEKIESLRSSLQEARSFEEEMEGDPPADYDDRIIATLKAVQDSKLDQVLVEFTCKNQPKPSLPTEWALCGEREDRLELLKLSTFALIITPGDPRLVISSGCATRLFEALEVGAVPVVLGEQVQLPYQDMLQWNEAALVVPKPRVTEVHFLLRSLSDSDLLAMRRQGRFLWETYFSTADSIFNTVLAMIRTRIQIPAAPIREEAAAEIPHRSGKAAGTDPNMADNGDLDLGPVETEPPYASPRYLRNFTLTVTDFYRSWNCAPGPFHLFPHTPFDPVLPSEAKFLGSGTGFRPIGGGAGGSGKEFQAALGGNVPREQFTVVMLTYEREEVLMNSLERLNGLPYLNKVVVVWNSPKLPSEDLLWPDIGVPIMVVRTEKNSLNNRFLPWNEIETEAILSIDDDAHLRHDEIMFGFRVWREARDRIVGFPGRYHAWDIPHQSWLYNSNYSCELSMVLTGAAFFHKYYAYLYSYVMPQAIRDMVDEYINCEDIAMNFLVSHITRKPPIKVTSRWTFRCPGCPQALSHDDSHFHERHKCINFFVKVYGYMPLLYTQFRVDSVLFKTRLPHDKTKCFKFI


Target: T1, HIP receptor (EXTL3)
Experiment: receptor immunostaining and trafficking in PANC-1 cells (indirect)
Protocol: The upper panels indicated by the Cy3 immunofluorescent staining of EXTL3 (red). In the lower panel of images the Cy3 immunostaining of EXTL3 has been overlaid with DAPI (blue) staining of the nuclei. Cells were grown in standard growth medium as a control and compared to cells grown serum-free medium (SFM) in the presence or absence of HIP. […] The cell borders are well-defined indicating surface expression of EXTL3 on the plasma membrane. The yellow arrows delineate the cell borders while the nuclei are shown in blue. The middle images are cells grown in SFM. EXTL3 is localized in the cytoplasm as indicated by cytoplasmic Cy3 staining. The green arrows show the lack of staining in the position of the nuclei. […] In the lower image of cells grown in SFM and HIP, the blue arrows indicate the position of the nuclei. In the lower image there is an overlap of EXTL3-Cy3 staining and nuclear DAPI staining that corroborates the nuclear localization of EXTL3 (blue arrows). Scale bar=20 μm in all images.

| binding result | Binder |
| --- | --- |
| binds | IGLHDPTQGTEPNG [HIP2 (Human proIslet Peptide, Ile-Gly-Leu-His-Asp-Pro-Thr-Gln-Gly-Thr-Glu-Pro-Asn-Gly)] |
| binds | Ac-IGLHDPTQGTEPNG-NH2 (also called Optimized HIP2B) [HIP2Blocked (Ac-Ile-Gly-Leu-His-Asp-Pro-Thr-Gln-Gly-Thr-Glu-Pro-Asn-Gly-NH2)] |
